We go through 7 molecules from US11020478B2, “Methods for modulating angiogenesis of cancers refractory to anti-VEGF treatment” (INIS BIOTECH LLC, priority 2013, dated 2021).

Numbering of substitutions follows the chain as printed.

One experiment deals with T1, rhVEGFR2 (Homo sapiens, UniProt P35968).
T1 construct: the recombinant extracellular domain of VEGFR2 expressed in human cells (Sino Biological Inc.); purchased Sino Biological Inc; host or cells: human cells
Kind of experiment: FRET-based fluorescence spectroscopy, Gal1 binding to rhVEGFR2. Particulars: 594-Gal1 added to 0.5 μM 488-VEGFR2, 25° C. The procedure: Association between rhVEGFR2 and Gal1 was studied by a FRET-based fluorescence spectroscopy approach. NHS-activated fluorophores DyLight 488 (DL488, FRET donor) and DyLight 594 (DL594, FRET acceptor) were purchased from Thermo Scientific. For labeling, 4 mg rhGal1 and 100 μg of the recombinant extracellular domain of VEGFR2 expressed in human cells (Sino Biological Inc.) were modified with 200 μg of DL594 and 50 μg of DL488, respectively. Labeling was carried out in PBS buffer in the presence of 5 mM dithiothreitol (DTT) for 1 hour at room temperature following manufacturer's recommended protocol (Thermo Scientific). Labeled rhGal1 was purified by size exclusion chromatography using a Superdex-75 column (GE Life Sciences) generated in PBS containing 5 mM DTT and concentrated up to 200 μM using Centricon tubes (Millipore). Labeled VEGFR2 was dialyzed for 48 hours against PBS using a homemade microdialyzer. Fluorescence spectra were measured in a JASCO FP-6500 spectrofluorometer endowed with a Peltier effect thermostatized cell holder. A 4×4 mm fluorescence cell was employed. All binding assays were carried out at 25° C. in PBS buffer with the addition of 5 mM DTT. Excitation wavelength was set to 493 nm, with a bandpass of 1 nm. Emission spectra were recorded from 500 to 680 nm, using a bandpass of 3 nm. […] Fluorescence intensity at 518 nm was corrected for dilution and inner filter effects.

In a further experiment the test system is HUVEC. Kind of experiment: Binding of 488-Gal1 to ECs (flow cytometry). The experiment is classed as cell-based, human.
The test system of the next experiment is HUVEC tube formation. Kind of experiment: Capillary-like tube formation on Matrigel (HUVEC). The class given is cell-based, human. Conditions: for tube formation induced by Gal1 / inhibitory activity in Gal1-induced formation of tubular structures (tubulogenesis): HUVEC. The method, then:
(§1) Cells were incubated at 37° C. for periods ranging from 0 to 24 h and were visualized by phase-contrast microscopy. Capillary-like tubular structures were scored by counting the number of tubules (closed areas) per well in a phase-contrast microscope (Nikon E-100). For migration assays, ECs (4×10^4/well) transfected or not with specific siRNA were resuspended in M199 medium supplemented with 1% FCS. Cells were placed into the top chamber of the insert while the bottom well was filled with Gal1 or VEGF-A in the absence or presence of the above mentioned stimuli. After 24 hours, inserts were stained with crystal violet (Sigma) and analyzed in an inverted microscope. For each filter, 4 images were obtained and cells were counted with ImageJ software v1.46r (NIH). […] After 24 hours, cells were incubated in the presence of 0.8 μCi [^3H]-thymidine (NEN Dupont). Cells were then harvested and radioactivity was measured in a 1414 Liquid Scintillation Counter (Perkin Elmer). Tumor-associated ECs were identified by flow cytometry using Alexa Fluor 647-conjugated anti-CD34 (RAM34; eBioscience) and FITC-conjugated anti-CD45 (J33; Immunotech). Microvessel density (MVD) was determined by counting the number of CD31^+ microvessels present in 10 mm^2. Ten random 400× fields were counted.

A further experiment has as its system HUVEC migration. Put plainly: EC migration assay (HUVEC). The class given is cell-based, human. Details: inhibitory activity in Gal1-induced cell migration: dose or concentration left out as unconfirmed. The procedure:
as §1

Another experiment deals with ECs. Kind of experiment: EC proliferation assay ([3H]-thymidine). The experiment is classed as cell-based, human. The procedure: as §1
Another experiment concerns the target T2, human recombinant Gal-1 (Homo sapiens, UniProt P09382).
T2 construct: made in house
Put plainly: Affinity assay (SPR) of fully human anti-Gal1 monoclonal antibodies. Conditions: for Ka: kinetics model of interaction adjustment 1:1, BIAEvaluation 3.0. The experiment is classed as binding. An excerpt: Also conducted was an affinity assay (SPR) for the newly developed fully human anti-Gal1 monoclonal antibodies. In order to characterize affinities of the new anti-Gal-1 monoclonal antibodies, dose-response (RU) curves were collected of the interactions between the monoclonal antibodies and human recombinant Gal-1 (FIG. 14A and FIG. 14B).
By using the BIAEvaluation 3.0 software in a kinetics model of interaction adjustment 1:1, kinetic parameters, constants of dissociation (Kd) and affinity (Ka) were calculated.

Experiment [1] concerns Gal1 peptides with the consensus motif MAADGDF. Put plainly: PEPperMAP Conformational Epitope Mapping Analysis. The experiment is classed as binding. Conditions: antibody 10 μg/mL; all three peptide lengths. The procedure: Epitope mapping: In order to determine the specific conformational epitopes recognized by the new anti-Gal1 antibodies, a PEPperMAP® Conformational Epitope Mapping Analysis was performed.

T2 sequence (P09382 whole entry): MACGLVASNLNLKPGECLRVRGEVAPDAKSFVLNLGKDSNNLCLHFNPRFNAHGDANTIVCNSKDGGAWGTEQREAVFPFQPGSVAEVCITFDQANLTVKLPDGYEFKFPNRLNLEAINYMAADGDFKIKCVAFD
T1 sequence (P35968 20-764 limits assumed): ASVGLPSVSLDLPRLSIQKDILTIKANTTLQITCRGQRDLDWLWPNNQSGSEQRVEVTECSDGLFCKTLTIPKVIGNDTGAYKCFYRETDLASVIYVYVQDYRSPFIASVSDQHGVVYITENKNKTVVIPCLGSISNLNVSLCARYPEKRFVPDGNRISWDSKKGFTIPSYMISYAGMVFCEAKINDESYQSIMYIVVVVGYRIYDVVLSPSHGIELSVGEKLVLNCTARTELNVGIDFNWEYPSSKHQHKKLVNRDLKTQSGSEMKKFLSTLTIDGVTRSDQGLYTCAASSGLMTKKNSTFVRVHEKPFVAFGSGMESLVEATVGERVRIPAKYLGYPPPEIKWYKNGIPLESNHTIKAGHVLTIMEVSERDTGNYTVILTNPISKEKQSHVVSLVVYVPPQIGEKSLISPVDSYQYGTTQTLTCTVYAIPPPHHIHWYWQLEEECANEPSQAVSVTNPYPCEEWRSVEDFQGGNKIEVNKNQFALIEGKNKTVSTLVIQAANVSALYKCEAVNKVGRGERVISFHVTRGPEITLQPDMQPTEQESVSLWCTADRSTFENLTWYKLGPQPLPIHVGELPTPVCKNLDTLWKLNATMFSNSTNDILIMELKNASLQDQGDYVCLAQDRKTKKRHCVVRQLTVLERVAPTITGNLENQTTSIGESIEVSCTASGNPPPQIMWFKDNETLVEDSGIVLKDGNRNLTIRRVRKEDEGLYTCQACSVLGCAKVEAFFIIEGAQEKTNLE

As for “Gal1: recombinant Galectin-1, glycan-binding protein (SEQ ID NO: 2)”, the “dissociation constant (Kd)” value in the experiment with rhVEGFR2 is given as “low micromolar range”.
On to `CC(=O)N[C@H]1[C@@H](OCc2ccccc2)O[C@H](CO)[C@H](O)[C@@H]1O` [benzyl-α-GalNAc], for which, in the experiment on HUVEC, the “Gal1 binding to ECs in presence of inhibitor” value was “only partially inhibitory”.
Regarding “Gal1^N46D: Gal1 mutant lacking carbohydrate-binding activity [reference compound]”, in the experiment with HUVEC tube formation, the “impact on EC response” value is “no impact”. For the same molecule, the “binding to ECs” value in the experiment on HUVEC (any of the concentrations tested) was “no binding”.
For the molecule `O[C@H]1[C@H]2[C@H](O)CCCN2C[C@H]1O` [swainsonine, reference compound], in the experiment with HUVEC migration, the “EC migration induced by Gal1” value is listed as “almost completely prevented”. For the same molecule, in the experiment with HUVEC tube formation, the “tube formation induced by Gal1” value is “almost completely prevented”. Further, in the experiment with ECs, the “EC proliferation induced by Gal1” value is listed as “almost completely prevented”. Further, the “Gal1 binding to ECs in presence of inhibitor” value in the experiment with HUVEC is “almost completely abrogated”.
Regarding `OC[C@H]1O[C@@H](O[C@H]2[C@H](O)[C@@H](O)C(O)O[C@@H]2CO)[C@H](O)[C@@H](O)[C@H]1O` (stereo partly drawn) [lactose, reference compound], in the experiment on HUVEC migration, the “EC migration induced by Gal1” value was “almost completely prevented”. Moreover, in the experiment with HUVEC tube formation, the “tube formation induced by Gal1” value was “almost completely prevented”. Besides, in the experiment on ECs, the “EC proliferation induced by Gal1” value is “almost completely prevented”.

B1: Clone 21: fully human anti-Gal1 monoclonal antibody (IgG1) from scFv library; VH SEQ ID NO: 15, VK SEQ ID NO: 19 (antibody, V domains shown)
VH: EVQLLESGGGLVQPGGSLRLSCAASGFTFSSYAMSWVRQAPGKGLEWVSEIGRVGVNTLYADSVKGRFTISRDNSKNTLYLQMNSLRAEDTAVYYCAKKATQFDYWGQGTLVTVSS
VL: DIQMTQSPSSLSASVGDRVTITCRASQSISSYLNWYQQKPGKAPKLLIYRASRLQSGVPSRFSGSGSGTDFTLTISSLQPEDFATYYCQQTIGPPDTFGQGTKVEIKR
modifications: IgG1 format
On to B1, for which, in the experiment with human recombinant Gal-1, the “interaction with human recombinant Gal1” value is reported as “high specific interactions” and the Ka is 649000 M⁻¹. Besides, in experiment [1], the “binding activity against epitope-like spots formed by adjacent peptides with consensus motif MAADGDF” value was “moderate to high binding activity”. The “inhibitory activity in Gal1-induced cell migration” value in the experiment on HUVEC migration is “significantly blocked”. In the experiment on HUVEC tube formation, the “inhibitory activity in Gal1-induced formation of tubular structures (tubulogenesis)” value is listed as “significantly blocked”.

B2: Clone 42: fully human anti-Gal1 monoclonal antibody (IgG1) from scFv library; VH SEQ ID NO: 23, VK SEQ ID NO: 27 (antibody, V domains shown)
VH: EVQLLESGGGLVQPGGSLRLSCAASGFTFSSYAMSWVRQAPGKGLEWVSGISGSGDYTSYADSVKGRFTISRDNSKNTLYLQMNSLRAEDTAVYYCAKGYGAFDYWGQGTLVTVSS
VL: B1 VL with R50G, R53W, T91S, I92A, G93N, P94Y, D96S
modifications: IgG1 format
Regarding B2, in the experiment with human recombinant Gal-1, the “interaction with human recombinant Gal1” value is “high specific interactions” and the Ka was 7.63e+06 M⁻¹. For the same molecule, the “binding activity against epitope-like spots formed by adjacent peptides with consensus motif MAADGDF” value in experiment [1] is given as “higher binding activity”. The “inhibitory activity in Gal1-induced cell migration” value in the experiment with HUVEC migration is reported as “significantly blocked”. In the experiment with HUVEC tube formation, the “inhibitory activity in Gal1-induced formation of tubular structures (tubulogenesis)” value was “significantly blocked”.
